Data set [1] deals with T1, CD45 (Homo sapiens, UniProt P08575).
T1 sequence (P08575 26-1306): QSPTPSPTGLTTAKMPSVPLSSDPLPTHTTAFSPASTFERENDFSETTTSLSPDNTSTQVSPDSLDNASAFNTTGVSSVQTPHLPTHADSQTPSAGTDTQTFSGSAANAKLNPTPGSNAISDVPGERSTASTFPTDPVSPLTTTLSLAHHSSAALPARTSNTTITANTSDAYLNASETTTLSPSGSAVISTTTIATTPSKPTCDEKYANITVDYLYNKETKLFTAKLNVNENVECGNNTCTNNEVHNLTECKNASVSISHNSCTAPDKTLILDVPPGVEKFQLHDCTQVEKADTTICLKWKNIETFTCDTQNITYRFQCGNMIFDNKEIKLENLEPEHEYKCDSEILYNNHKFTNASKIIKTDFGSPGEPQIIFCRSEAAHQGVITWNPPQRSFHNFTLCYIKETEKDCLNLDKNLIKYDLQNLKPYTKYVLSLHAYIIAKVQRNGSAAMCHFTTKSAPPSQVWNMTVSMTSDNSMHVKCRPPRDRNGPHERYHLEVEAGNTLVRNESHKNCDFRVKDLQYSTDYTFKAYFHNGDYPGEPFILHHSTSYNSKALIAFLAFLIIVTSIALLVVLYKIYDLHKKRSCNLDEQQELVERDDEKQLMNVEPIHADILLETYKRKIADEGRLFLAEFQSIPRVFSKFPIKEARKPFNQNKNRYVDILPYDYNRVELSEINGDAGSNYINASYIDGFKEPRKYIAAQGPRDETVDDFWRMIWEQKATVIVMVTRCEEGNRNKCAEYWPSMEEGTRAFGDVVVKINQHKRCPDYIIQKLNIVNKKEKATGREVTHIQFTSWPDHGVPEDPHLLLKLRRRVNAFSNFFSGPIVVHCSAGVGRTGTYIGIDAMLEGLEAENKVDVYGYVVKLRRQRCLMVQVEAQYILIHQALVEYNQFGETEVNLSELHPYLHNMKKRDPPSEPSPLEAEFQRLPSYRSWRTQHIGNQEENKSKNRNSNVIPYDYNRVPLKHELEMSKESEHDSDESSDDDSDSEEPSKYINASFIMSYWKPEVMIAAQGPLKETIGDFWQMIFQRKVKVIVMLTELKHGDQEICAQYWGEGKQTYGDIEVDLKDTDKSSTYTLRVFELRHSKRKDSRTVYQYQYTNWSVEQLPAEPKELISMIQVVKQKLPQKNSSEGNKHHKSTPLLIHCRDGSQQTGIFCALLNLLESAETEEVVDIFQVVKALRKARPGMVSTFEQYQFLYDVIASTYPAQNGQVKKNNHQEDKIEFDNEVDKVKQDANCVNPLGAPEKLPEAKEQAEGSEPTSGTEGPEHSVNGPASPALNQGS
To be noted: p56lck residues 500-509 peptide; read-out: Km toward CD45; cited from earlier work.

Data set [2] has as its target fluorescein-labeled EGF receptor derived phosphopeptide D-A-D-E-pY-L-NH2 (human). Nature of the data set: fluorescence polarization, mutant PTP titrated against fluorescein-labeled peptide in solution (midpoint = apparent Kd). On the technique in general: Fluorescence polarisation rises when a labelled molecule tumbles more slowly, as on binding a larger partner.
Data set [3] deals with fluorescein-labeled insulin receptor derived phosphopeptide T-R-D-I-pY-E-T-D-Y-Y-R (human). The data set is described as above.
The target in data set [4] is fluorescein-labeled EGF receptor derived phosphopeptide D-A-D-E-pY-L-NH2 (human). Nature of the data set: fluorescence polarization, mutant PTP titrated against fluorescein-labeled peptide in solution.
Data set [5] has as its target fluorescein-labeled insulin receptor derived phosphopeptide T-R-D-I-pY-E-T-D-Y-Y-R (human). The description is as above.
The target in data set [6] is T2, fluorescein-labeled EGF receptor derived phosphopeptide D-A-D-E-pY-L-NH2 (not fully specified).
T2 chain: DADEYL

Data set [7] deals with fluorescein-labeled EGF receptor derived phosphopeptide D-A-D-E-pY-L-NH2 (human). The experiment in a line: fluorescence polarization, C215S PTP1B as reaction terminator (Polarstar reader).
For data set [8], the target named is T3, PTP1B (Homo sapiens, UniProt P18031).
T3 construct: PTP1B proteins (wild type and mutant forms) comprising amino acids 1-321 were expressed in E. coli; made in house; host or cells: E. coli
T3 sequence (P18031 1-321): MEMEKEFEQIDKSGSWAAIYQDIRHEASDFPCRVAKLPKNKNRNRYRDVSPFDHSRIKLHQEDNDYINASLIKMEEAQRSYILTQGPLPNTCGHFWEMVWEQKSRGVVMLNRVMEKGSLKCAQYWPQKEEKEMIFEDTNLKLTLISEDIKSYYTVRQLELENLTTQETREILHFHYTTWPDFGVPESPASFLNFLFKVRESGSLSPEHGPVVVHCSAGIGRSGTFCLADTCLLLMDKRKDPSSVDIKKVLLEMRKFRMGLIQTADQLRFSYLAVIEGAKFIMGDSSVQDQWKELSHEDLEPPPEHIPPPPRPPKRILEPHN
Nature of the data set: PTP catalytic assay of F-ERP-P dephosphorylation with alternate reaction terminator molecules (FP). To be noted: reactions stopped after 11 min, polarization stable for 14 hours. The class given is biochemical. On the procedure:
The ability of each reaction terminator molecule also was assessed in the presence and absence of vanadate (a well known, nonspecific PTP inhibitor).
Assays were set up in black polypropylene plates with 20 μl of 25 mM Tris HCl pH 7.5 and 20 μl of 300 nM F-ERP-P in 25 mM Tris HCl pH 7.5, 1 mM EDTA, 1 mM DTT, 0.25 mg/ml ovalbumin (TEOD buffer). […] Plates were read using the Polarstar instrument from BMG Lab Technologies using the following settings:
As in Example 3, wells were set up to measure background fluorescence to allow proper calculation of mP values and other wells were set up without addition of terminator reagent to assess the minimum polarization value of the unbound fluorescent phosphotyrosyl peptide (F-ERP-P).

Square brackets hold non-standard residues; d marks the D form. Ends that are not written are not given here. pY = N[C@@H](Cc1ccc(OP(=O)(O)O)cc1)C(=O)O

Broadly, the Km is the substrate concentration at which the rate is half of its maximum. With “A-T-E-G-Q-pY-Q-P-Q-P (ATEGQ[pY]QPQP; also: fluorescein label) [F-lck-P]”, the Km in data set [1] was 130 µM.
As a reminder, the EC50 is the concentration needed to bring the measured effect to its halfway point. As for “PTP1B(D181A), amino acids 1-321 (from UniProt P18031 1-321) (enzyme)”, the EC50 in data set [2] amounted to 1.07 nM; in data set [3], 0.508 nM. For the same molecule, the Peak Mp amounted to 269 mP in data set [4] and 132 mP in data set [5].

B1: PTP1B (wild type), amino acids 1-321 (protein)
chain: MEMEKEFEQIDKSGSWAAIYQDIRHEASDFPCRVAKLPKNKNRNRYRDVSPFDHSRIKLHQEDNDYINASLIKMEEAQRSYILTQGPLPNTCGHFWEMVWEQKSRGVVMLNRVMEKGSLKCAQYWPQKEEKEMIFEDTNLKLTLISEDIKSYYTVRQLELENLTTQETREILHFHYTTWPDFGVPESPASFLNFLFKVRESGSLSPEHGPVVVHCSAGIGRSGTFCLADTCLLLMDKRKDPSSVDIKKVLLEMRKFRMGLIQTADQLRFSYLAVIEGAKFIMGDSSVQDQWKELSHEDLEPPPEHIPPPPRPPKRILEPHN
In the case of B1, the “time to complete dephosphorylation of F-ERP-P (fluorescence polarization catalytic assay)” value in data set [6] is “under these conditions the dephosphorylation of F-ERP-P was complete by 20 minutes”.

B2: PTP1B(C215S), amino acids 1-321 (protein)
chain: MEMEKEFEQIDKSGSWAAIYQDIRHEASDFPCRVAKLPKNKNRNRYRDVSPFDHSRIKLHQEDNDYINASLIKMEEAQRSYILTQGPLPNTCGHFWEMVWEQKSRGVVMLNRVMEKGSLKCAQYWPQKEEKEMIFEDTNLKLTLISEDIKSYYTVRQLELENLTTQETREILHFHYTTWPDFGVPESPASFLNFLFKVRESGSLSPEHGPVVVHSSAGIGRSGTFCLADTCLLLMDKRKDPSSVDIKKVLLEMRKFRMGLIQTADQLRFSYLAVIEGAKFIMGDSSVQDQWKELSHEDLEPPPEHIPPPPRPPKRILEPHN
Regarding B2, in data set [7], the maximum polarization value for bound peptide came to 300 mP. For the same molecule, in data set [8], the “stopping of the dephosphorylation reaction (reaction terminator)” value was “equally effective at stopping the dephosphorylation reaction”. The “termination of PTP1B-mediated dephosphorylation of F-ERP-P” value in data set [6] was “monoclonal antiphosphotyrosine antibody G104 and the C215S-PTP1B binding mutant were equally effective at stopping the dephosphorylation reaction”. Also, the EC50 in data set [2] worked out at 0.965 nM; in data set [3] it was 1.16 nM. For the same molecule, the Peak mP in data set [4] stood at 316 mP; in data set [5], 151 mP.

The values are drawn from patent US20070015231A1, “Assay for protein tyrosine phosphatases” (CEPTYR, Inc., priority 2000, published 2007).
